Source: PMC12109978
Each block holds one molecule with its values, some of them ahead of it.

Assays:
[1] = target: human tropomodulin 4 (Tmod4) (human) (UniProt Q9NZQ9); test: pull-down; His-tagged Tmod4 (6 µM) incubated 20 min with 3 to 24 µM Tpm in 30 mM HEPES-Na, 200 mM NaCl, pH 7.3, then captured on IMAC Ni-charged resin, eluted with 500 mM imidazole; SDS-PAGE, densitometry
[2] = target: human tropomodulin 1 (Tmod1) (human) (UniProt P28289); test: SEC; Superose 6 Increase 10/300 GL, 50 mM HEPES-Na pH 7.3, 150 mM NaCl, 1 mM DTT, 0.5 mL/min, 280 nm; 30 µM Tpm and Tmod1, or 26 µM Tpm and 13 µM Tmod4; single proteins and mixtures
[3] = target: human tropomyosin Tpm1.1 with Ala-Ser N-terminal extension (human)

Chain of UniProt Q9NZQ9 (Q9NZQ9 whole entry): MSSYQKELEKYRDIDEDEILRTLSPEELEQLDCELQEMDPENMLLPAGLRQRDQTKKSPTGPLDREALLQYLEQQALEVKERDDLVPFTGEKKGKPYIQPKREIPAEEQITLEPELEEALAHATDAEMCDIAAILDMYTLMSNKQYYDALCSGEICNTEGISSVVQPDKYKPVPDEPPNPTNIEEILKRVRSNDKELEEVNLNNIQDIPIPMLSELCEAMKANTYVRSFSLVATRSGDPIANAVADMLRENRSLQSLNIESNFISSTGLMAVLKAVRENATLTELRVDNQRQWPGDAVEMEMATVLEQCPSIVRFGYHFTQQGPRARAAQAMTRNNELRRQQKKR

Tpm/Tmod ratio at which saturation is reached (Tpm/Tmod ratio) [1]: 3
stoichiometry N (Tpm1.1 per Tmod1) [2]: 2
Molecule: human tropomyosin Tpm1.1 with Ala-Ser N-terminal extension (natural protein)

Tpm/Tmod ratio at which saturation is reached (Tpm/Tmod ratio) [1]: 2.5
Molecule: human tropomyosin Tpm1.2 with Ala-Ser N-terminal extension (natural protein)

decrease of the sliding velocity of thin filaments containing Tpm1.1 over sheep ventricular myosin at pCa 5.2 by 500 nM Tmod1 [3]: 30%
B1: human tropomodulin 1 (Tmod1) (natural protein)
chain: MSYRRELEKYRDLDEDEILGALTEEELRTLENELDELDPDNALLPAGLRQKDQTTKAPTGPFKREELLDHLEKQAKEFKDREDLVPYTGEKRGKVWVPKQKPLDPVLESVTLEPELEEALANASDAELCDIAAILGMHTLMSNQQYYQALSSSSIMNKEGLNSVIKPTQYKPVPDEEPNSTDVEETLERIKNNDPKLEEVNLNNIRNIPIPTLKAYAEALKENSYVKKFSIVGTRSNDPVAYALAEMLKENKVLKTLNVESNFISGAGILRLVEALPYNTSLVEMKIDNQSQPLGNKVEMEIVSMLEKNATLLKFGYHFTQQGPRLRASNAMMNNNDLVRKRRLADLTGPIIPKCRSGV
